From US20180021429A1, “ANTICANCER AGENTS OR ANTIMETASTATIC AGENTS USING FSTL1 AND COMBINATION DRUG THEREOF” (PHARMA FOODS INTERNATIONAL CO., LTD., priority 2015, published 2018)

System: mouse bone marrow cells
Test: Inhibition of induction of mesenchymal stem cells (MSC) by FSTL1 in mouse bone marrow cells (Examples 4, 6, 8, 12)
Format: cell-based
Conditions: for inhibitory activity against the expansion of ALCAM-positive cells and PDGFRA-positive cells by FSTL1: Example 4: 50 ng/mL FSTL1, 10 μg/mL antibody, vs control anti-DNP antibody
Protocol: It is known that when bone marrow cells are stimulated with FSTL1, mesenchymal stem cells (MSCs) having pluripotency or self-proliferative capacity grow (Cancer Research 73: 6185, 2013). Thus, 2×10^7 cells/well of bone marrow cells collected from the thigh bone of a C57BL/6 mouse were suspended in 3 mL/well of RPMI1640 (GIBCO/Thermo Fisher Scientific Inc., Cat. No. C11875500BT) medium containing 2% fetal bovine serum, supplemented with 50 ng/mL (final concentration) of FSTL1 (R&D Systems, Inc. Cat#1694-FN-050) and 10 μg/mL of the anti-FSTL1 antibody (#5-2, […], #5-8, #5-10, #5-43, #6-55, or #7-34) or its isotype mouse IgG (anti-DNP antibody) as a control antibody “Control”, and cultured under stimulation (6-well plate). 11 days thereafter, the number of cells was counted while the cells were stained with a PE-labeled anti-ALCAM antibody (eBioscience, Cat. No. 12-1661-82) and a PE-labeled anti-PDGFRA antibody (eBioscience, Cat#12-1401-81) in order to examine the expression of MSC markers, and the contents of ALCAM-positive cells and PDGFR-positive cells were analyzed by flow cytometry using FACScan (Becton, Dickinson and Company, Code. BECTON-DICKINSON-FACSCAN) to calculate the number of each positive cell per culture.
(§1) Mouse bone marrow cells prepared in the same way as in Example 4 were supplemented with 50 ng/mL (final concentration) of FSTL1 and 10 μg/mL of the anti-FSTL1 antibody (#5-2, #5-3, #5-8, #5-10, #5-43, #6-55, or #7-34) or a control antibody anti-DNP antibody and cultured under stimulation. 11 days thereafter, the number of cells was counted while the cells were stained with a PE-Cy5-labeled anti-CD45 antibody (BD Pharmingen/Becton, Dickinson and Company, Cat. No. 555484), and the content of CD45− negative cells reported to generally contain MSCs at a high rate was analyzed by flow cytometry using FACScan to calculate the percentage and number of MSCs per culture (FIG. 99A).
as §1, with “20” for “50”, “#8-1, #8-4, #8-7, and #8-8)” for “or #7-34)”, “8” for “11”, “antibody,” for “antibody (BD Pharmingen/Becton, Dickinson and Company, Cat. No. 555484),”, “cells” for “cells reported to generally contain MSCs at a high rate”, “100A).” for “99A).”
Mouse bone marrow cells prepared in the same way as in Example 4 were supplemented with 20 ng/mL (final concentration) of FSTL1 and 10 μg/mL of the anti-FSTL1 antibody (#5-2, #5-8, #6-55, […], #8-1, #8-4, #8-7, or #8-8) or a control antibody anti-DNP antibody and cultured under stimulation. 8 days thereafter, the number of cells was counted while the cells were stained with a PE-Cy5-labeled anti-CD45 antibody, and the content of CD45− negative cells was analyzed by flow cytometry using FACScan to calculate the percentage and number of MSCs per culture (FIG. 101).

[1] = Example 8: 20 ng/mL FSTL1, 10 μg/mL antibody, 8 days, FIG. 100A
[2] = Example 12: 20 ng/mL FSTL1, 10 μg/mL antibody, 8 days, FIG. 101
[3] = Example 6: 50 ng/mL FSTL1, 10 μg/mL antibody, 11 days, FIG. 99A

| Molecule | inhibitory activity against the expansion of ALCAM-positive cells and PDGFRA-positive cells by FSTL1 (11 days) | inhibitory activity against the expansion of CD45-negative cells by FSTL1 [1] | inhibitory activity against the expansion of CD45-negative cells by FSTL1 [2] | inhibitory activity against the expansion of CD45-negative cells by FSTL1 [3] |
| --- | --- | --- | --- | --- |
| #6-55: chicken-mouse chimeric anti-FSTL1 antibody clone; variable regions SEQ ID NO: 783 (light), 785 (heavy) (antibody, V domains shown, mouse constant regions) VH: AVTLDESGGGLQTPGGALSLVCKGSGFTFTSVTMQWVRQAPGKGLEWVASVCSGSSTYYAPAVKGRATISRDNGQSTVRLQLSNLRPEDTGTYYCAKIAGRARWSCTSAAYNIDAWGHGTEVIVSS VL: ASTQPSSVSAIPGETVKITCSGGGNNYGWYQQRSPGSAPVTVIYYNDNRPSNIPSRFSGSTSGSTSTLTITGVQADDEAIYYCGSWDSNTDSGIFGAGTTLTVL | slightly strong tendency of inhibitory activity | exhibited inhibitory activity | higher inhibitory activity was confirmed in the order of #7-34, #5-2, #6-55, and #8-7 | – |
| #7-34: chicken-mouse chimeric anti-FSTL1 antibody clone; variable regions SEQ ID NO: 787 (light), 789 (heavy) (antibody, V domains shown, mouse constant regions) VH: AVTLDESGGGLQTPGGGLSLVCKASGFTFSSVTMQWVRQAPGKGLEWVASICSGSSTYYGPAVKGRATISRDNGQNTVRLQLNNLRAEDTATYYCAKIVGRGRWSCTSAAYNIDAWGHGTEVIVSS VL: ASTQPSSVSANPGETVKITCSGGGNNYGWYQQKSPGSAPVTVIYYNNNRPSNIPSRFSGSTSGSTSTLTITGVQAEDEAVYYCGSYEGSTDSGIFGAGTTLTVL | slightly strong tendency of inhibitory activity | – | higher inhibitory activity was confirmed in the order of #7-34, #5-2, #6-55, and #8-7 | higher inhibitory activity and substantially completely inhibited the action of FSTL1 |
| #5-43: chicken-mouse chimeric anti-FSTL1 antibody clone; variable regions SEQ ID NO: 779 (light), 781 (heavy) (antibody, V domains shown, mouse constant regions) VH: AVTLDESGGGLQTPGGGLSLVCKGSGFTFSSFNMFWVRQAPGKGLEWVAGIGKDGGTGYGAAVDGRATISKDSGQSTLRLQLNNLRAEDTGTYYCAKAAGGCSYDWCGAYTGDIDTWGHGTEVIVSS VL: ASTQPSSVSANPGEAVKITCSGGSGSYYGWYQQKSPGSAPVTVIYNNNQRPSDIPSRFSGSKSGSTATLTITGVQAEDEAVYFCGGYDSSTGHGGIFGAGTTLTVL | slightly strong tendency of inhibitory activity | exhibited inhibitory activity | – | higher inhibitory activity and substantially completely inhibited the action of FSTL1 |
| #5-3: chicken-mouse chimeric anti-FSTL1 antibody clone; variable regions SEQ ID NO: 767 (light), 769 (heavy) (antibody, V domains shown, mouse constant regions) VH: AVTLDESGGGLQTPGGALSLVCKGSGFSFSSFNMFWVRQAPGKGLEWVAGIGKDGVPKYGAAVDGRATISKDNGQSTMRLQLNNLRAEDTGTYFCAKAAGGCSYDWCGIYAGDIDTWGHGTEVIVSS VL: ASTQPSSVSANPGETVKITCSGGSGYYYGWYQQKSPGSVPVTVIYNNNNRPSDIPSRFSGSKSGSTGTLTITGVRAEDEAVYYCGGYDNSGTGIFGAGTTLTVL | – | – | – | higher inhibitory activity and substantially completely inhibited the action of FSTL1 |
| #8-1: chicken-mouse chimeric anti-FSTL1 antibody clone; variable regions SEQ ID NO: 791 (light), 793 (heavy) (antibody, V domains shown, mouse constant regions) VH: AVTLDESGGGLQTPGGALSLVCKGSGFTFSSFNMFWVRQAPGKGLEWVAGIGKDGVPKYGAAVDGRATISKDNGQSTMRLQLNNLRAEDTGTYFCAKAAGGCSYDWCGIYAGDIDTWGHGTEVIVSS VL: ASTQPSSVSANPGEAVKITCSGGSGSYYGWYQQKSPGSAPVTVIYNNNQRPSDIPSRFSGSKSGSTATLTITGVQAEDEAVYFCGGYDSSSGHGGIFGAGTTLTVL | – | exhibited inhibitory activity | – | – |
| #8-4: chicken-mouse chimeric anti-FSTL1 antibody clone; variable regions SEQ ID NO: 795 (light), 797 (heavy) (antibody, V domains shown, mouse constant regions) VH: AVTLDESGGGLQTPGGGLSLVCKGSGFTLSSFNMFWVRQAPGKGLEWVAGVGKDGGTAYGAAVDGRATISRDSGQSTVRLQLNNLRAEDTGTYFCAKAAGGCSYSWCGAYVGDLDAWGHGTEVIVSS VL: ASSQPSSVSANPGETVKITCSGGSGYYYGWYQQKSPGSAPVTVIYNNDNKPSDIPSRFSGSKSGSTGTLTITGVQVEDEAVYFCGGYDNSGTGIFGAGTTLTVL | – | exhibited inhibitory activity | – | – |
| #8-7: chicken-mouse chimeric anti-FSTL1 antibody clone; variable regions SEQ ID NO: 799 (light), 801 (heavy) (antibody, V domains shown, mouse constant regions) VH: AVTLDESGGGLQTPGGGLSLVCKGSGFTFSSFNMFWVRQAPGKGLEWVAGIGKDGVPKYGAAVDGRATISKDNGQSTLRLQLNNLRAEDTGTYFCAKAAGGCSYDWCGIYAGDIDTWGHGTEVIVSS VL: ASTQPSSVSANPGEAVKITCSGGSGSYYGWYQQKSPGSAPVTVIYNNNQRPSDIPSRFSGSKSGSTATLTITGVQAEDEAVYFCGGYDSSTGHGGIFGAGTTLTVL | – | – | higher inhibitory activity was confirmed in the order of #7-34, #5-2, #6-55, and #8-7 | – |
| #5-8: chicken-mouse chimeric anti-FSTL1 antibody clone; variable regions SEQ ID NO: 771 (light), 773 (heavy) (antibody, V domains shown, mouse constant regions) VH: AVTLDESGGGLQTPGGGLSLVCKGSGFTFSSFNMFWVRQAPGKGLEWVAGIGKDGVPKYGTAVDGRATISKDNGQSTMRLQLNNLRAEDTGTYFCAKAAGGCSYDWCGIYTGDIDTWGHGTEVIVSS VL: ASTQPSSVSANPGEAVKITCSGGSGSYYGWYQQKSPGSAPVTVIYNNNQRPSDIPSRFSGSKSGSTATLTITGVQAEDEAVYFCGGYDSSTGHGGIFGAGTTLTVL | – | exhibited inhibitory activity | – | – |
| #5-2: chicken-mouse chimeric anti-FSTL1 antibody clone; variable regions SEQ ID NO: 763 (light), 765 (heavy) (antibody, V domains shown, mouse constant regions) VH: AVTLDESGGGLQTPGGGLSLVCKGSGFTFSSFNMFWVRQAPGKGLEWVAGVGKDGGTGYGAAVDGRATISKDNGQSTLRLQLNNLRAEDTGTYYCAKAAGGCSYGWCGSYVGDIDAWGHGTEVIVSS VL: ASTQPSSVSANPGEAVKITCSGGSGSYYGWYQQKSPGSAPVTVIYNNNQRPSDIPSRFSGSKSGSTATLTITGVQAEDEAVYFCGGYDSSTGHGGIFGAGTTLTVL | – | – | higher inhibitory activity was confirmed in the order of #7-34, #5-2, #6-55, and #8-7 | – |
